{"source": "the nanobody polyreactivity screen of Harvey et al. (2022)"}
{"assay": "yeast display, Sf9 membrane polyspecificity reagent, FACS + sequencing; frameworks hold sequencing errors", "outline": "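Genes from sorted yeast were amplified by colony PCR, read by MiSeq 2 × 250 sequencing and filtered on CDR length. These cells carried a synthetic nanobody library in Saccharomyces cerevisiae BJ5465 and were sorted by FACS into low and high (top ~1%) gates on anti-HA and streptavidin fluorescence. Polyreactivity is labelled according to the gate of origin.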"}
{"sequence": "QVQLVESGGGLVQAGGSHRLSCAASGIIFYRNAMGWYRQAPGKEREFVAAISSSGTNTYYADSVKGRFTISRDNAKITVYLQMNSLKPEDTAVYYCNADPDDGYFSDFDYWGQGTQVTVSS", "polyreactivity (PSR sort gate)": "low polyreactivity"}
{"sequence": "QVQLVESGGGLVQAGGSHRLSCAASGIIIRYYAMGWYRQAPGKERDLVAAISGGGSTYYADSVKGRFTISRDNAKNTVYLQMNRLKPEDTAVYYCAAAGRWYYHGYNYWGQGTQVTVSS", "polyreactivity (PSR sort gate)": "high polyreactivity"}
{"sequence": "QVQLVESGGGLVQAGGSHRLSCAASGITFAFNTMGWYRQAPGKERELVAAISYSGGRTYYADSVKGRFTISRDNAKNTVYLQMNSLKPEDTAVYYCNTRYRGSYDYWGQATQVTVSS", "polyreactivity (PSR sort gate)": "high polyreactivity"}
{"sequence": "QVQLVESGGGLVQAGGSHRLSCAASGITFGSYVMGWYRQAPGKERELVAAISRSGGRTYYADSVKGRFTISRDNAKNTVYLQMNSLKPEDTAVYYCAARYDSGNYVYWGQGTQLTVSS", "polyreactivity (PSR sort gate)": "high polyreactivity"}
{"sequence": "QVQLVESGGGLVQAGGSHRLSCAASGITFSTYAKGGYRQAPGKERELVAAITKSGGSTYYADSVKGRFTISRDTAKNTVYLQMNSLKPEDTAVYYCAAEGDWRGSALYNYWGLGTQVTVSS", "polyreactivity (PSR sort gate)": "low polyreactivity"}
{"sequence": "QVQLVESGGGLVQAGGSHRLSCAASGLILGINAKGWYRQAPGTERELVAAISSSGGRTSYADSVKGRFTISRDNGKNTVYLQMNSLNPEDTAVYYCAKRRTTYSHYDYWGHGTQVTVSS", "polyreactivity (PSR sort gate)": "low polyreactivity"}
{"sequence": "QVQLVESGGGLVQAGGSHRLSCAASGLTFSKYAMGWYRQAPGKERELVAAIRRSGGSTYYADSVKGRFTISRDNAKNTVYLQMNSLKPEDTAVYYCAADNYRYWNILRDYWGQGTQVTVSS", "polyreactivity (PSR sort gate)": "low polyreactivity"}
{"sequence": "QVQLVESGGGLVQAGGSHRLSCAASGRIFKINAMGCYRQAPVKERELVAGISGSGSDTYYADSVKGRFTISRDNSKNTVYLQMNSLKPEDTAVYYCAATVVQYYDRDYWGQGTQVTVSS", "polyreactivity (PSR sort gate)": "low polyreactivity"}
{"sequence": "QVQLVESGGGLVQAGGSHRLSCAASGRIFVIYAMGWNRQAPGKERELVALITRGSSTYADSVKGRFTISRDNAKNTVYLQMYSLKPEDTAVYYCAARRYVTVDYDYWGQGTQVTVSS", "polyreactivity (PSR sort gate)": "high polyreactivity"}
{"sequence": "QVQLVESGGGLVQAGGSHRLSCAASGRILPGYAMGWYRPAPGKERELVAAITTGGSTYYADSVKGRFTISRDNAKNTVYLQMNSLKPEDTAVYYCAKLYSYVGWGGQFDYWGQGTQVTVSS", "polyreactivity (PSR sort gate)": "low polyreactivity"}
{"sequence": "QVQLVESGGGLVQAGGSHRLSCAASGRILYRNVMGWYRQAHGKERELVAGISFTGGSTYYADSVKRRFTISRDNAKNTVYLQMNSLKPEDTAVYYCAATYSSYWARYYYWGQGTPVTVSS", "polyreactivity (PSR sort gate)": "high polyreactivity"}
{"sequence": "QVQLVESGGGLVQAGGSHRLSCAASGRTFANYAMGWYRQAPGKERELVAAITSGGRTYYADSVKGRFTISRDNAKNTVYLQMNSLKPEDSAVYYCAADYTYDYQNDYWGQGTQVTVSS", "polyreactivity (PSR sort gate)": "high polyreactivity"}
{"sequence": "QVQLVESGGGLVQAGGSHRLSCAASGSIFHRYAMGWYRQAPGKERELVAGITWSGDSTYYADSVKGRFTISRDNAKNTVYLEMNSLKPEDTGVYYCAKRAPRHYKGVPAAWFGYWGQGTQVTVSS", "polyreactivity (PSR sort gate)": "low polyreactivity"}
{"sequence": "QVQLVESGGGLVQAGGSHRLSCAASGSIFKRNAMRSYRQAPGKERELVAAISRSGGSTYYADSVKGRFTISRDFAKNTVYLQMNSLKPEDTAVYYCDARRKLGYGSENDYWGQGTQVTVSS", "polyreactivity (PSR sort gate)": "high polyreactivity"}
{"sequence": "QVQLVESGGGLVQAGGSHRLSCAASGSIFRGYAMGWNRHAPRKERELVASITWSSGSTYYADSVKGRFTISRDNAKITVYLQMNSLKPEDTAVYDCAADVEYWSYEFNYWGQGTQVTVSS", "polyreactivity (PSR sort gate)": "low polyreactivity"}
{"sequence": "QVQLVESGGGLVQAGGSHRLSCAASGSIFRSNTMGWYRQAPGKERELVAAITWRRGSTYYADSVKGRFTISRDNAKNTVYLQMNSLKPEDTAVYDCNALYVSRDDYWGQGTQVTVSS", "polyreactivity (PSR sort gate)": "high polyreactivity"}
{"sequence": "QVQLVESGGGLVQAGGSHRLSCAASGSIFSWYAMGWYRQAPGKVRELVAAITWTRGSTYYADSVKGRFTISRDTANNTVYLQMKSLKPDDSAVYYCAARRVVYRYYWYSAYVYWGQGTQVTVSS", "polyreactivity (PSR sort gate)": "high polyreactivity"}
{"sequence": "QVQLVESGGGLVQAGGSHRLSCAASGSIFTRNVMGWYRQAPGKERELVAAITSAGSTYYADSVKGRFTISRDNAKNNVYLQMTSLNPEDTAVYNCDAKVYYPYLFTSYDYWGQGTQVTVSS", "polyreactivity (PSR sort gate)": "high polyreactivity"}
{"sequence": "QVQLVESGGGLVQAGGSHRLSCAASGSIFWSYAMGWYRQAPGKARELVASISRRGGSTSYADSVKGRFTISRDNAKNTVYLQMNSLKPEDTAVYYCNAYGRQNHYYWGQGTQVTVSS", "polyreactivity (PSR sort gate)": "high polyreactivity"}
{"sequence": "QVQLVESGGGLVQAGGSHRLSCAASGSTFEIYAMGWYRQAPGKERELVAAISSGGSTNYADSVKGRFTISRDNAKNSVYLQMNSLKPEDTAVYYCVYAIQFDYWGQGTQVTVSS", "polyreactivity (PSR sort gate)": "low polyreactivity"}
{"sequence": "QVQLVESGGGLVQAGGSHRLSCAASGSTFEYYAMGWYRQAPGKERELVAAITTSGGITYYADSVKGRFTISRDNAKNTVYLQMNSLKPEDTAVYYCNADAVPFPTLVTYLYDYWGQGTQVTVSS", "polyreactivity (PSR sort gate)": "low polyreactivity"}
{"sequence": "QVQLVESGGGLVQAGGSHRLSCAASGSTFGSNAMGWYRQAPGKERELVAARTIGGSTNYADSVKGRFTISRDNAKNTVYLEMTSLKPEETAVYYCNADPQQSKLWTYFFGFPGYYWGQGTQVTVSS", "polyreactivity (PSR sort gate)": "low polyreactivity"}
{"sequence": "QVQLVESGGGLVQAGGSHRLSCAASGSTFLINAMGWYRQAPGKERELVAAISRDGSTNYADSVKGRFTISRDNAKNTVYLQMNSLKPDDTAVYYCAADEQAYYVRRFDYWGEGTQVTVSS", "polyreactivity (PSR sort gate)": "low polyreactivity"}
{"sequence": "QVQLVESGGGLVQAGGSHRLSCAASGSTFWGYTMRWYRQAPGKERELVAAITRSSGRTYYADSVKGRFTISRDNAKITVYLQMNSLKPEETAVYYCNAAAVGRRTWSPYDYWGQGTQVTVSS", "polyreactivity (PSR sort gate)": "high polyreactivity"}
{"sequence": "QVQLVESGGGLVQAGGSHRLSCAASGSTIAGNAMGWYRQAPGKERELVAVITRGGSTNYADSVKGRFTISRDNAKNTVYLQLNSLKPEDTAVYYCARYRFLLDYWGGGYYWGQGTQVTVSS", "polyreactivity (PSR sort gate)": "high polyreactivity"}
{"sequence": "QVQLVESGGGLVQAGGSHRLSCAASGYIFQWNAMGWYRQAPGKERELVATISRRGGSTYYADSVKGRFTISRDNAKNTVYLQMNSLKPEDTAVYYCNAVFGSYKDYGYWGQGTQVTVSS", "polyreactivity (PSR sort gate)": "low polyreactivity"}
{"sequence": "QVQLVESGGGLVQAGGSHRLSCAATGFTFSYYSMGWYRQAPGKERELVAAITSSAGSTYYADTVKGRFTISRDNAKNTVYLQMNSLKPEDTAVYYCNAVYSKLNGGYDYWGQGTQVTVSS", "polyreactivity (PSR sort gate)": "low polyreactivity"}
{"sequence": "QVQLVESGGGLVQAGGSHRLSCASSGRTLLAYAMGWYIQAPGKEREFVDAISSRGVRTYYADSVKGRFTISRDNANNTVYLQMNSLKPEDTAVYYCASRGTKSIKDVPGIRYGYWGQGTQVTVSS", "polyreactivity (PSR sort gate)": "high polyreactivity"}
{"sequence": "QVQLVESGGGLVQAGGSHRLSCSASGLTFSYYAMGGYRQEPGKERELVAAITRTGDRTYYADSVKGRFTISRDNAKNTVYLQMNSLKPEDTAVYYCAAKWRIVGSRQWYDYWGQGTQVTVSS", "polyreactivity (PSR sort gate)": "high polyreactivity"}
{"sequence": "QVQLVESGGGLVQAGGSHRLSCSASGSIIFYYAMGWDRQAPGKEREFVAAITRSGVRTYYADSVKGRFTISRDNAKNTVYLQMNSLKPEDTAVYYCNADYGFYRPVLMGYWGQGTQVTVSS", "polyreactivity (PSR sort gate)": "low polyreactivity"}
{"sequence": "QVQLVESGGGLVQAGGSIRLICAASGFTFSRYAMGWYRQAPGKERELVAVISSSGSRTYYADSVKGRFTISRDNAKNTVYLQMNSLKPEDTAVYYCAAKSRPRYYGTEPFDSWGQGTQVTVSS", "polyreactivity (PSR sort gate)": "high polyreactivity"}
{"sequence": "QVQLVESGGGLVQAGGSIRLSCAASGFIFRGNAMGWYRQAPGKERELVARISGSGDSTYYADSVKGRFTISRDNAKNTVYFQMNSQKPEATEVYDCNADVFPGVEAYDSTIEYYSWGQGTQVTVSS", "polyreactivity (PSR sort gate)": "low polyreactivity"}
{"sequence": "QVQLVESGGGLVQAGGSIRLSCAASGITFTLYAMGWYRQAPGKEMELVAAITISAGSTYYADSVKGRFTISRDNAKNTVYLQINSLKPEDTAVYYCAAESYGSWYYYWGQGTQVTVSS", "polyreactivity (PSR sort gate)": "high polyreactivity"}
{"sequence": "QVQLVESGGGLVQAGGSIRLSCAASGITFVGNAMGWYRQAPGKERELVASISSGASTNYADSVKGRFTISRDNAKNTVYLQMNSLKPEDTAVYYCAAEGSLEGWDFDSWGQGTQVTVSS", "polyreactivity (PSR sort gate)": "low polyreactivity"}
{"sequence": "QVQLVESGGGLVQAGGSIRLSCAASGLIFRYYTMGWYRQAPGKERELVATITKSGSSTYYADSVKGRFTISRDNAKNTVYLQMNSLKPEDTAVYYCAARVTRRYDYWGQGTQLTVSS", "polyreactivity (PSR sort gate)": "high polyreactivity"}
{"sequence": "QVQLVESGGGLVQAGGSIRLSCAASGNIFVSYAMGWYRQAPAKERELVAAISKSGGSTYYADSVKGRFTISRDNAKNTVYLQMNSLKPEDTAVYYCAARWYNRVKYQKYNYWGQGTQVTVSS", "polyreactivity (PSR sort gate)": "high polyreactivity"}
{"sequence": "QVQLVESGGGLVQAGGSIRLSCAASGRIFYPYAMGWYRPAPGKDRELVAAIRRSGVDTYYADSVKGRFTISRDNAKQTVYLQMNSLKPEDTAVYYCAADPYWFFAHYDSWGQGTQVTVSS", "polyreactivity (PSR sort gate)": "low polyreactivity"}
{"sequence": "QVQLVESGGGLVQAGGSIRLSCAASGRISTYYTMGWYRQAPGKERELVAAISWSGTSTYYADSVKGRFTISRDNAKNTVYLQMNSLKPEDTAVYYCNARWRYPLDSVTDDYWGQGTQVTVSS", "polyreactivity (PSR sort gate)": "high polyreactivity"}
{"sequence": "QVQLVESGGGLVQAGGSIRLSCAASGSIFGSNAMGWYRQAPGKERELVDAISGSGGSTNYADSVKGRFTISRDNAKNTVYLQMNSLKAEDTAVYYCAVPSKATGSASTSSGIFDSWGQGTQVTVSS", "polyreactivity (PSR sort gate)": "low polyreactivity"}
{"sequence": "QVQLVESGGGLVQAGGSIRLSCAASGSIFRPYVMGWSRPAPGKERELVAAISSRGGDTYYADYVKGRFTISRDYAKNTVNVQMISLKPEDTAVYYCNARYYTSYDYWGQGSQVTVSS", "polyreactivity (PSR sort gate)": "low polyreactivity"}
{"sequence": "QVQLVESGGGLVQAGGSIRLSCAASGSTFAKNAMGWYRQAPGKERELVAAISRGGNTYYADSGKGRFTISRDNAKNTVYLQMNSLKPEDTAVYYCSKLPFTRTYLGSLYDYWGQGTQVTVSS", "polyreactivity (PSR sort gate)": "high polyreactivity"}
